This passage reports binding result and Kd results from patent US20130177979A1 (UNIVERSITY OF CENTRAL FLORIDA RESEARCH FOUNDATION, published 2013).

Assay [1] concerns the target T1, human epidermal growth factor receptor (EGFR) on cells (human, UniProt P00533 25-1210).
T1 construct: whole, on cells; SPI is said to associate with the pTyr motifs of the receptor's cytoplasmic tail inside cells; also called hEGFR; EGF receptor
Put plainly: Fluorescence and confocal microscopy, fluorescently-labeled SPI and anti-EGFR immunostaining in MDA-MB-231 and NIH3T3/hEGFR cells. From the text: Fluorescence imaging and immunofluorescence with laser-scanning confocal microscopy.

Assay [2] addresses T2, PpYLKTK (Stat3-derived pTyr705 peptide).
T2 construct: SPR analyte; also called pY705Stat3; Stat3 pY705 peptide
T2 peptide: P[pY]LKTK
Put plainly: SPR (SensiQ), His-tagged protein immobilised on HisCap chip, pTyr peptide as analyte.

In assay [3] the target is T3, GpYIKTE (Stat1 pY701 peptide).
T3 construct: SPR analyte; also called pY701Stat1; Stat1 phosphopeptide
T3 peptide: G[pY]IKTE
The assay is described as above.

The target of assay [4] is T4, GpYVKPQ (pTyr peptide of Stat5).
T4 construct: SPR analyte; also called pY694Stat5; pY695Stat5
T4 peptide: G[pY]VKPQ
The description is as above.

The target in assay [5] is T5, PEpYINQS (pY1068 peptide of EGFR).
T5 construct: SPR analyte; also called pY1068EGFR
T5 peptide: PE[pY]INQS
Described as above.

The target of assay [6] is T4, GpYVKPQ (pTyr peptide of Stat5). Put plainly: SPR (SensiQ); His-tagged full-length Stat3 immobilised on a HisCap sensor chip, GpYVKPQ passed over as analyte; sensorgram shown at 100 µM.

Where no end group is shown, it is not given here. [ ]: non-standard residue; d: D form. pY = N[C@@H](Cc1ccc(OP(=O)(O)O)cc1)C(=O)O

Usually Kd stands for the free concentration of one partner at which half of the binding sites on the other are occupied at equilibrium, for simple one-to-one binding. Higher therefore signals weaker binding.

B1: 5-carboxyfluorescein-labeled SPI (peptide)
peptide: FISKERERAILSTKPPGTFLLRFSESSK
modifications: 5-carboxyfluorescein attached to the amino-terminus
notes: Used for cell uptake and colocalisation microscopy; also called fluorescently-labeled SPI
Take B1: the binding result in assay [1] is “binds”.

B2: His-tagged Stat3 (full-length Stat3) (other)
chain: MAQWNQLQQLDTRYLKQLHQLYSDTFPMELRQFLAPWIESQDWAYAASKESHATLVFHNLLGEIDQQYSRFLQESNVLYQHNLRRIKQFLQSRYLEKPMEIARIVARCLWEESRLLQTAATAAQQGGQANHPTAAVVTEKQQMLEQHLQDVRKRVQDLEQKMKVVENLQDDFDFNYKTLKSQGDMQDLNGNNQSVTRQKMQQLEQMLTALDQMRRSIVSELAGLLSAMEYVQKTLTDEELADWKRRQQIACIGGPPNICLDRLENWITSLAESQLQTRQQIKKLEELQQKVSYKGDPIVQHRPMLEERIVELFRNLMKSAFVVERQPCMPMHPDRPLVIKTGVQFTTKVRLLVKFPELNYQLKIKVCIDKDSGDVAALRGSRKFNILGTNTKVMNMEESNNGSLSAEFKHLTLREQRCGNGGRANCDASLIVTEELHLITFETEVYHQGLKIDLETHSLPVVVISNICQMPNAWASILWYNMLTNNPKNVNFFTKPPIGTWDQVAEVLSWQFSSTTKRGLSIEQLTTLAEKLLGPGVNYSGCQITWAKFCKENMAGKGFSFWVWLDNIIDLVKKYILALWNEGYIMGFISKERERAILSTKPPGTFLLRFSESSKEGGVTFTWVEKDISGKTQIQSVEPYTKQQLNNMSFAEIIMGYKIMDATNILVSPLVYLYPDIPKEEAFGKYCRPESQEHPEADPGSAAPYLKTKFICVTPTTCSNTIDLPMSPRTLDSLMQFGNNGEGAEPSAGGQFESLTFDMDLTSECATSPM
Consider B2, for which the Kd in assay [2] came out at 0.9 µM; in assay [3], 4.4 µM; in assay [4], 1200 µM; in assay [5], 0.6 µM; in assay [6], 1140 µM.
